The target of data set [1] is T1, pP1192R DNA topoisomerase II, full-length (African swine fever virus, UniProt A0A2X0THW2 1-1192). Briefly: cryo-EM. The conditions noted are these: protein: recombinant; tags: C-terminal 8xHis; chain copies: 2; blunt.
Data set [2] addresses T1, pP1192R DNA topoisomerase II, …. The data set can be described thus: EMSA. The conditions noted are these: protein: recombinant; tags: C-terminal 8xHis; chain copies: 2; label: 5'-Cy5 on O1; four-way junction of O1-O4. On the technique in general: Mobility shift assays separate free from complexed probe on a gel.
The target is the same in data set [3]. Briefly: size exclusion chromatography. Particulars: protein: recombinant; tags: C-terminal 8xHis; chain copies: 2; four-way junction of O1-O4. Background: In gel filtration, larger molecules generally elute earlier.

B1: 52 bp dsDNA (G-segment) (dsDNA)
DNA 1: ATGCATATATATGTATATGTATGTGTGTATATATACACATATATATATATAT
DNA 2: ATATATATATATATGTGTATATATACACACATACATATACATATATATGCAT
Turning to B1, in data set [1], the binding result was “binds”.

B2: four-way junction DNA, Cy5 (structured_DNA)
DNA 1: CTGGACGCAATCTGACAATGCGCTCATCGTCATCCTCGGCACGCGCCG
DNA 2: CGGCGCGTGCCGAGGATGACGATGAGATAGGCGTTAACGCGGCCTA
DNA 3: TAGGCCGCGTTAACGCCTATTTGCCCGGGAGTACCGGCATTCCT
DNA 4: AGGAATGCCGGTACTCCCGGGCAACGCATTGTCAGATTGCGTCCAG
As for B2, the binding result in data set [2] is on record as “binds”.

B3: four-way junction DNA (structured_DNA)
DNA 1: B2 DNA 1
DNA 2: B2 DNA 2
DNA 3: B2 DNA 3
DNA 4: B2 DNA 4
B3: the binding result in data set [3] is on record as “binds”.

The values above are taken from publication PMC11139879.
